# Assay results published in patent US10287521B2, “Enzymatic removal of steryl glycosides” (KECLON S.A., priority 2012, dated 2019).
# Key:
# [1] = Steryl glycoside hydrolysis in distilled biodiesel/water mixture (Example 5); assay type: biochemical
# Experimental: Steryl glycosidase activity is measured as follows: • a) Prepare a stock solution of steryl glycoside by dissolving 10 milligrams (mg) of steryl glycoside in 1 milliliter (ml) of a 3:1 mixture of tetrahydrofuran:water. • b) Add the steryl glycoside to a final concentration of 100 microgram per milliliter (μg/ml) in 1 ml of a reaction mixture containing 50 millimolar (mM) Phosphate buffer pH 6.5 and 5 μg of steryl glycosidase in an Eppendorf tube. • c) Place the reaction mixture on a shaker incubator and incubate at 80° C. for 4 h. • d) Extract the reaction mixture with 1 ml of ethyl acetate and evaporate to dryness under vacuum. • e) Re-dissolve the sample in 10 microliter (μl) of ethyl acetate • f) Analyze by thin layer chromatography (TLC) the presence of free sterols, generated as a result of steryl glycoside hydrolysis after the enzymatic treatment, using Hexane:Methanol 85:15 as running buffer and develop with ρ-anisaldehide • d) Alternatively, analyze 50 μl sample of the reaction mixture for the presence of glucose using an assay based on the Hexokinase/Glucose 6-P-dehydrogenase method: the glucose generated by steryl glycoside hydrolisis is converted by Hexokinase (or Glucokinase) into glucose 6-phosphate. Glucose 6-phosphate is further oxidized by Glucose 6-P dehydrogenase, simultaneously reducing NADP+ to NADPH. The NADPH generated is detected by fluorescence (λex: 338 nm, λem: 461 nm) and allows detection of glucose levels below 1 ppm. The assay can be adapted to microplates scale and detected in a Synergy microplate reader.
# The following is an example of how to use a steryl glycosidase to remove steryl glycosides from a biodiesel mixture: • a) A 42.5 ml distilled biodiesel sample containing 100 ppm of steryl glycosides is mixed with 7.5 ml of a water solution containing 50 mM Phosphate buffer pH 6.5 and 300 μg of steryl glycosidase. […]
# [2] = Steryl glycoside hydrolysis in crude biodiesel (Example 6); assay type: biochemical; details: about 70 ppm steryl glycosides, 8 mg enzyme, 80° C., in 3 h
Molecule,"steryl glycoside hydrolysis compared with LacS ([1]; Bio/water+ADMUL emulsions, data not shown)","steryl glycoside hydrolysis ([1]; without the addition of any emulsifier, in 3 h, 80° C.) [%]",steryl glycoside hydrolysis in crude biodiesel [2],"steryl glycoside hydrolysis, dependence on emulsifier ([1]; distilled biodiesel/water, 80° C., with or without 5% ADMUL emulsifier)"
"TL: steryl glycosidase TL from T. litoralis (SEQ ID NO.: 17) (protein, listed as Thermococcus litoralis) FPEKFLFGTSTAAHQVEGDNRWNDWWYYEEIGKLPYKSGKACNHWGLYREDIELMAQLGYNAYRFSIEWSRLFPEEGKFNEDAFNRYREIIELLLEKGITPNVTLHHFTSPLWFMRKGGFLKEENLKYWEKYVDKAAELLKGVKLVATFNEPMVYVMMGYLTAYWPPFVKSPFKAFKVAANLLKAHAMAYDILHGNFDVGIVKNIPIMLPASNREKDIKAAQKADNLFNWNFLDAIWSGKYKGAFGTYKTPESDVDFIGINYYTASEVRHSWNPLKFFFDAKLADLSERKTDMGWSVYPKGIYEAIAKVSRYGKPMYITENGIATLEDEWRIEFIIQHLQYVHKALNDGFDLRGYFYWSFMDNYEWAEGFRPRFGLVEVDYTTFERRPRKSGYVYGEIAREKKIKDELLAKYGLPEL",higher and faster hydrolysis,~100,could completely hydrolize steryl glycosides,–
"LacS: steryl glycosidase LacS from S. solfataricus (SEQ ID NO.: 2) (protein, listed as Sulfolobus solfataricus) MYSFPNSFRFGWSQAGFQSEMGTPGSEDPNTDWYKWVHDPENMAAGLVSGDLPENGPGYWGNYKTFHDNAQKMGLKIARLNVEWSRIFPNPLPRPQNFDESKQDVTEVEINENELKRLDEYANKDALNHYREIFKDLKSRGLYFILNMYHWPLPLWLHDPIRVRRGDFTGPSGWLSTRTVYEFARFSAYIAWKFDDLVDEYSTMNEPNVVGGLGYVGVKSGFPPGYLSFELSRRAMYNIIQAHARAYDGIKSVSKKPVGIIYANSSFQPLTDKDMEAVEMAENDNRWWFFDAIIRGEITRGNEKIVRDDLKGRLDWIGVNYYTRTVVKRTEKGYVSLGGYGHGCERNSVSLAGLPTSDFGWEFFPEGLYDVLTKYWNRYHLYMYVTENGIADDADYQRPYYLVSHVYQVHRAINSGADVRGYLHWSLADNYEWASGFSMRFGLLKVDYNTKRLYWRPSALVYREIATNGAITDEIEHLNSVPPVKPLRH",–,–,–,could only exhibit steryl glycoside hydrolisis when reactions were performed in the presence of ADMUL™
